Positions count from the first letter of the chain named.
Molecular target: T1, Polyhistidine-tagged recombinant human UCH-L1 expressed from E. coli (human, UniProt P09936 1-223, limits assumed)
T1 construct: also called UCH-L1-His; not shown: polyhistidine tag
Assay: BLI (Octet QKe); His-tagged UCH-L1 on anti-Penta-HIS sensor, antibody in solution
Description: The rates of association (kₒₙ) and dissociation (koff) of the anti-UCH-L1 antibodies were determined by bio-layer interferometry using an Octet QK^e instrument according to the manufacturer's instructions (ForteBio). See Tobias et al., Biomolecular Binding Kinetic Assays in the Octet Platform, Application Note 14, ForteBio, Div. of Pall Life Sciences, 2013. Polyhistidine-tagged recombinant human UCH-L1 expressed from E. coli was used as the antigen. The antigen was bound at a concentration of […] to an anti-Penta-HIS(HIS1K) capture biosensor containing an anti-histidine antibody (ForteBio) for use with the Octet QK^e instrument.

T1 sequence (P09936 whole entry): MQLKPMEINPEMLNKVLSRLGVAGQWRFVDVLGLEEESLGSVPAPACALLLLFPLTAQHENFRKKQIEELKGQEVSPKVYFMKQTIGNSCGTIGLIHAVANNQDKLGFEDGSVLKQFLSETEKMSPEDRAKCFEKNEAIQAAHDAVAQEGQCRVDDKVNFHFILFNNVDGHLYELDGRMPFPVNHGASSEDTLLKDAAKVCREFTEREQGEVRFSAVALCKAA

B1: UCH-L1-2 (antibody, V domains shown)
VH: EVMLVESGGGLVKPGGSLKLSCAASGFIFSSHAMSWIRQIPEKRLEWVATISSGGSNTYYPDSVKGRFTISRDNAKNILYLQMSSLRSEDTAIYYCTRHGEVRRGYYFDYWGQGTTLTVSS
VL: DIQMTQTPSSLSASLGDRVTISCSASQGITNYLNWYQQKPDGTVKLLIYYTSSLHSGVPSRFSGSGSGTDYSLTISNLEPEDFATYYCQHYSNLPWTFGGGTKLEIK
notes: also called mouse anti-UCH-L1 antibody UCH-L1-2
  Kd: 0.207 nM
  koff: 3.01e-05 s⁻¹
  kon: 146000 M⁻¹ s⁻¹

B2: UCH-L1-4 (antibody, V domains shown)
VH: AVQLQQSGPELVKPGASVKISCKTSGDTFTEHFMNWVKQSHGESLEWIGIINPYTDGTNYDQKFKDKATLTVDKSSSTAYMELRSLTSEDSAVYYCARWGGDGEGYWGQGTTLTVSS
VL: DIVMTQAAPSVSVTPGESVSISCRSSKSLLHSNGNTYLYWFLKRPGQSPQLLIYRMSNLASGVPDRVSGSGSGTAFTLRISRVEAEDVGIYYCMQHLEYPLTFGAGTKLELK
notes: also called mouse anti-UCH-L1 antibody UCH-L1-4
  Kd: 0.0369 nM
  koff: 1.4e-05 s⁻¹
  kon: 378000 M⁻¹ s⁻¹

B3: UCH-L1-5 (antibody, V domains shown)
VH: EVKLVESGGGSVQPGGSLSLSCAASGFTFTEYYMSWVRQFPGKALEWLAFIRNRAHGYTTEYSASVKGRFTISRDNSQSILYLQMNALRTEDSATYYCASSYGAPFAYWGQGTLVSVSA
VL: B2 VL with S12P, N33D, K43Q, V67F, I90V
notes: also called mouse anti-UCH-L1 antibody UCH-L1-5; HRP-labeled anti-UCH-L1 detection antibody
  Kd: < 0.001 nM
  koff: 1e-07 s⁻¹
  kon: 459000 M⁻¹ s⁻¹

B4: UCH-L1-7 (antibody, V domains shown)
VH: EVQLQQSGPELVKPGASVKISCKTSGYTFTEYTMHWVKQSHGKSLDWIGGINPNNGRTSYNQKFKGKATLTVDKSSSTAYMELRSLTSEDSAVYYCARRLGRGFYFDYWGQGTTLTVSS
VL: DIVLTQSPASLAVSLGQRATISCRASESVDSYGNNLMHWYQQKPGQPPKLLIYLSSNLESGIPARFSGRGSRTDFTLTINPVEADDVATYYCQQSNGDPYTFGGGTKLEIK
notes: also called mouse anti-UCH-L1 antibody UCH-L1-7
  Kd: 0.0187 nM
  koff: 2.5e-06 s⁻¹
  kon: 133000 M⁻¹ s⁻¹

B5: UCH-L1-8 (antibody, V domains shown)
VH: B4 VH with E10D, A16T, K43R, D46E, I51L, T78I
VL: B4 VL with P47S, L54R, S55A, A64G
notes: also called mouse anti-UCH-L1 antibody UCH-L1-8
  Kd: 0.0474 nM
  koff: 6.7e-06 s⁻¹
  kon: 141000 M⁻¹ s⁻¹

B6: UCH-L1-6 (antibody, V domains shown)
VH: B4 VH with E82D, L83F
VL: B4 VL with D30E, M37I, P44L, S60P, K111R
notes: also called mouse anti-UCH-L1 antibody UCH-L1-6
  Kd: < 0.001 nM
  koff: 1e-07 s⁻¹
  kon: 145000 M⁻¹ s⁻¹

B7: UCH-L1-9 (antibody, V domains shown)
VH: B4 VH with A92T
VL: B4 VL with L36F, I110M
notes: also called mouse anti-UCH-L1 antibody UCH-L1-9
  Kd: 0.0857 nM
  koff: 1.01e-05 s⁻¹
  kon: 118000 M⁻¹ s⁻¹

B8: UCH-L1-10 (antibody, V domains shown)
VH: B4 VH with E10D, A16T, K43R, D46E, I51F, A97S, G101Y
VL: B4 VL with P47S, L54R, S55A, A64G, T76S
notes: also called mouse anti-UCH-L1 antibody UCH-L1-10
  Kd: 0.043 nM
  koff: 4.6e-06 s⁻¹
  kon: 107000 M⁻¹ s⁻¹

B9: UCH-L1-1 (antibody, V domains shown)
VH: QVQLQQPGSELVRPGASVKLSCKASGYTFTSYWMHWVKQRPGQGLEWIGNIYPGSGSTNYDEKFKSKATLTVDTSSSTAYMQLSSLTSEDSAVYYCTREDYWGQGTTLTVSS
VL: DVLMTQTPLSLPVSLGDQASISCRSSQNIVHSNGNTYLEWYLQKPGQSPKLLIYKVSNRFSGVPDRFSGSGSGTDFTLKISRVEAEDLGVYYCFQGSHVPFTFGSGTKLEIK
notes: also called mouse anti-UCH-L1 antibody UCH-L1-1
  Kd: < 0.001 nM
  koff: < 1e-07 s⁻¹
  kon: 58800 M⁻¹ s⁻¹

B10: UCH-L1-3 (antibody, V domains shown)
VH: B9 VH with K23R, M34I, P41H, S57I, S66T, A68G, A79V, Q82H, S84I
VL: B9 VL with N28S, R82G, A85T, S105G
notes: also called mouse anti-UCH-L1 antibody UCH-L1-3
  Kd: 0.367 nM
  koff: 1.34e-05 s⁻¹
  kon: 36400 M⁻¹ s⁻¹

From patent US20210347914A1 (BANYAN BIOMARKERS, published 2021)
